Assay results taken from paper PMC4525180 (Nature communications, 2015).

B1: Rad51 (natural protein, S. cerevisiae, UniProt P25454 1-400, looked up)
chain: MSQVQEQHISESQLQYGNGSLMSTVPADLSQSVVDGNGNGSSEDIEATNGSGDGGGLQEQAEAQGEMEDEAYDEAALGSFVPIEKLQVNGITMADVKKLRESGLHTAEAVAYAPRKDLLEIKGISEAKADKLLNEAARLVPMGFVTAADFHMRRSELICLTTGSKNLDTLLGGGVETGSITELFGEFRTGKSQLCHTLAVTCQIPLDIGGGEGKCLYIDTEGTFRPVRLVSIAQRFGLDPDDALNNVAYARAYNADHQLRLLDAAAQMMSESRFSLIVVDSVMALYRTDFSGRGELSARQMHLAKFMRALQRLADQFGVAVVVTNQVVAQVDGGMAFNPDPKKPIGGNIMAHSSTTRLGFKKGKGCQRLCKVVDSPCLPEAECVFAIYEDGVGDPREEDE
B2: Rad55–Rad57 complex (complex, S. cerevisiae)
chain 1: MSLGIPLSQLIVESPKPLSSGITGLDEILNLGFQARSIYEIFGPPGIGKTNFGIQLVCNSLEGIQQSEINDDKILWIETFQEMPINILRERFQKFKIVEENVKRVRITKFGQLLYFFQNLFKLSQSVRYKLVIIDGFSQLVCDHLCTLSKRGGGMIDKTIHELKCRHLILIFTVMTKYTHSTGSTIIVLNDCMNTAFQSNEFESLEEYYEILDDGSNFFVNSNNERRKNNVHILKSALVANIAMGSKDSTWEVFLRDRIGLFRDWNEQVDETVFVKSKRVKASSSQSNEGCTTIKEMRINKRNFENLRIAIVFNLHGEDRKREGRNLKRSRSSDDRNYIVKFDFDKATGQLRDIIDLKPDTANIASFPTLSTSSSSCSQVFNNIDSNDNPLPNAEGKEEIIYDSEG
chain 2: MPRALSIKFDNTYMDLYDELPESKLLYDEEFSYLLDAVRQNGVCVVDFLTLTPKELARLIQRSINEVFRFQQLLVHEYNEKYLEICEKNSISPDNGPECFTTADVAMDELLGGGIFTHGITEIFGESSTGKSQLLMQLALSVQLSEPAGGLGGKCVYITTEGDLPTQRLESMLSSRPAYEKLGITQSNIFTVSCNDLINQEHIINVQLPILLERSKGSIKLVIIDSISHHLRVELQNKSFRESQENKNYLDRMAEKLQILAHDYSLSVVVANQVGDKPLANSPVAHRTYVTDYDYQLGWLVGWKNSTILYRQMNSLLGASSNNDEILSDDEDYMLIERVMSTVNDRNYDFFSKKKPPIIENKTVERNSSSPISRQSKKRKFDYRVPNLGLTWSNHVSTRILLQKSFKASTIIQRGEAHLYKGGDSASFWQVKRTMKVVYSTFAKPGQIAYQITKRGIETA
B3: Csm2–Psy3 heterodimer (complex, S. cerevisiae)
chain 1: MEYEDLELITIWPSPTKNKLCQFIKQNLSKEHVVTQLFFIDATSSFPLSQFQKLVPPTLPENVRIYENIRINTCLDLEELSAITVKLLQILSMNKINAQRGTEDAVTEPLKIILYINGLEVMFRNSQFKSSPQRSHELLRDTLLKLRVMGNDENENASIRTLLEFPKEQLLDYYLKKNNNTRTSSVRSKRRRIKNGDSLAEYIWKYYADSLFE
chain 2: MEVLKNIRIYPLSNFITSTKNYINLPNELRNLISEEQESKLGFLHIIESDFKPSVALQKLVNCTTGDEKILIIDIVSIWSQQKQRQHGAIYMNSLSCINITGLIVFLELLYDSPMDALRRCQVDNFNFQLRGIVIDNLSFLNFESDKNYDVINLSKFEKLFKILRKLREFLGCWIITKSFPTDFYNGIENTLVDKWSIKRKSGVTLYPTKLPDSYMKGMDLIIYREVVDGRPQYRRIAALEE
B4: Shu complex (Csm2–Psy3–Shu1–Shu2) (complex, S. cerevisiae)
chain 1: B3 chain 1
chain 2: B3 chain 2
chain 3: MQFEERLQQLVESDWSLDQSSPNVLVIVLGDTARKYVELGGLKEHVTTNTVAGHVASRERVSVVFLGRVKYLYMYLTRMQAQANGPQYSNVLVYGLWDLTATQDGPQQLRLLSLVLRQCLSLPSKVEFYPEPPSSSVPARLLRFWDHIIR
chain 4: MSKDVIEYSKLFAKLVNTNDDTKLDDTIASFLYYMFPRELFIRAISLLESSDMFIYILDRVHNKEGNEHTSLIDVLVDEFYKGSSNSLLEYRLIVKDTNDGAPPILVDIAHWFCSCEEFCKYFHEALEKTDEKEELHDVLINEVDDHLQFSDDRFAQLDPHSLSKQWYFKFDKVCCSHLLAFSILLRSSINVLKFFTVNSNKVFVIAIDNIDEWLNLHINIVE

Legend:
Settings in all cases: both partners purified
[1] = target: B2; experiment: pull-down; pull-down with Rad51; set-up only in Supplementary Fig. 2b; also with Csm2–Psy3 added to Rad55–Rad57 and Rad51
[2] = target: GST-tagged Rad52 (S. cerevisiae, UniProt P06778 1-471); experiment: pull-down; GST–Rad52 with one partner, captured on glutathione resin; buffer with 100 mM KCl, no imidazole, 4 °C; anti-FLAG immunoblot (FLAG on Rad57 and Psy3)
[3] = target: B2; experiment: pull-down; His-tagged Rad55–Rad57 (0.5 μg) with Csm2–Psy3 (0.5 μg), captured on Ni-NTA resin through (His)6 on Rad55; buffer C (20 mM MOPS pH 7.2, 150 mM KCl, 1 mM ATP, 2 mM MgCl2, 15 mM imidazole), 4 °C, washes with 200 mM KCl; SDS-PAGE, Coomassie
[4] = target: B2; experiment: pull-down; Shu complex with Rad55–Rad57; set-up only in Supplementary Fig. 2a

Chain of GST-tagged Rad52 (P06778 whole entry): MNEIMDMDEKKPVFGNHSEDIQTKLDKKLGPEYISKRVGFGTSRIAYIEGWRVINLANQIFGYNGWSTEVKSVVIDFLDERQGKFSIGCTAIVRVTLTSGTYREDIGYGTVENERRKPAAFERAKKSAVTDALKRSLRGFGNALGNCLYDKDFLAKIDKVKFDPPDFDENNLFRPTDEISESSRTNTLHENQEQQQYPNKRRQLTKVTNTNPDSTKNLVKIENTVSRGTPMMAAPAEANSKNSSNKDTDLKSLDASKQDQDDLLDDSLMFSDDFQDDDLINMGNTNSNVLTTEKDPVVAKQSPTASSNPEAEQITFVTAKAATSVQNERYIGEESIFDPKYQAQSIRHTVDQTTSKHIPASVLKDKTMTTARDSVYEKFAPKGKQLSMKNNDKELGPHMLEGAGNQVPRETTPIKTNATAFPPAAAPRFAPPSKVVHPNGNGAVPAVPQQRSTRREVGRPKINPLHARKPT

Binder: B1
binding result [1]: binds

Binder: B2
binding result [2]: binds

Binder: B3
binding result [3]: binds

Binder: B4
binding result [4]: binds
